According to the supplement of paper PMC10567573:

B1: NP_116010.1 (parent)
chain: HSLRAVSTDPPHHDHHDEFCLMP

How the values were obtained:
[1] = variants of: B1; assay: protein stability index of a GFP-peptide fusion (GPS, HEK-293T) (PSI 1-6); higher = more stable; settings: c terminus: native
[2] = variants of: B1; assay: as above; settings: c terminus: native; remark: listed apart in the source

Variant | protein stability index [1] | protein stability index [2]
P11R | 2.42 | 2.66
P11A | 2.67 | 2.67
P11Y | 2.26 | 3.15
P11S | 2.34 | 2.58
P11D | 2.73 | 2.3
P11F | 2.44 | 1.5
P11E | 2.72 | 2.81
P11I | 2.58 | 2.28
P11N | 2.5 | 2.41
P11C | 2.44 | 1.57
P11T | 2.24 | 1.9
P11V | 2.21 | 1.74
P11G | 2.59 | 2.46
P11Q | 2.56 | 1.99
P11M | 2.71 | 2.95
P11W | 2.16 | 2.29
P11K | 2.65 | 2.58
P11L | 2.55 | 4.46
S7T | 2.33 | 3.06
S7M | 2.74 | 2.65
S7N | 2.27 | 2.64
S7R | 2.36 | 1.88
S7I | 2.4 | 2.93
S7Y | 2.31 | 2.02

Variant | protein stability index [1] | protein stability index [2]
S7F | 2.23 | 
S7G | 2.58 | 2.83
S7Q | 2.58 | 3.14
S7L | 2.08 | 
S7W | 2.31 | 3.98
S7V | 2.39 | 2.7
S7H | 2.53 | 
S7C | 2.48 | 2.82
S7D | 2.81 | 2.26
L3K | 2.76 | 2.04
L3W | 2.23 | 2.47
L3I | 2.39 | 3.18
L3N | 3.45 | 2.59
L3C | 2.38 | 1.7
L3S | 3.2 | 2.59
L3V | 2.75 | 1.7
L3T | 2.22 | 2.75
L3H | 2.57 | 2.9
L3E | 2.28 | 2.11
L3Q | 2.78 | 2.52
L3G | 3.07 | 2.46
L3A | 2.35 | 2.02
L3Y | 2.38 | 
L3R | 2.82 | 2.21

Variant | protein stability index [1] | protein stability index [2]
L3D | 2.5 | 2.14
L3M | 2.43 | 3.08
H1G | 3.41 | 2.65
H1Q | 3.06 | 1.9
H1F | 2.24 | 
H1T | 3.55 | 2.54
H1N | 3.37 | 1.64
H1Y | 2.63 | 1.19
H1P | 3.39 | 2.21
H1L | 3.11 | 1.68
H1C | 2.68 | 2.48
H1M | 2.8 | 1.72
H1D | 3.42 | 3.31
H1I | 2.75 | 1.82
H1W | 2.18 | 1.93
H1S | 3.04 | 2.26
H1E | 3.5 | 2.41
H1K | 3.29 | 2.43
H1A | 3.26 | 1.49
H1R | 2.68 | 2.35
D9F | 2.44 | 3.37
D9K | 2.44 | 1.84
D9M | 2.23 | 2.04
D9E | 2.48 | 1.95

Variant | protein stability index [1] | protein stability index [2]
D9W | 2.52 | 1.81
D9V | 2.11 | 1.94
D9R | 2.2 | 
D9N | 2.38 | 1.93
D9C | 2.45 | 3.11
D9S | 2.44 | 3.56
D9G | 2.42 | 3.24
D9Y | 2.37 | 2.37
D14W | 1.97 | 1.87
D14R | 2 | 2.48
D14N | 2.11 | 2.13
D14V | 2.27 | 
D14L | 2.02 | 2.33
D14A | 2.52 | 2.35
D14G | 2.23 | 
D14S | 2.23 | 2.34
D14C | 2.5 | 1.99
D14K | 2.25 | 2.14
D14Y | 2.29 | 
D14Q | 2.45 | 2.61
D14M | 2.29 | 3.39
D14E | 2.5 | 
D14F | 1.99 | 1.83
D14I | 1.8 | 3.58

Variant | protein stability index [1] | protein stability index [2]
T8Y | 2.54 | 2.14
T8E | 2.45 | 2.89
T8A | 2.75 | 4.04
T8Q | 2.46 | 2.69
T8S | 2.13 | 2.85
T8H | 2.48 | 1.79
T8I | 2.59 | 2.13
T8M | 2.48 | 2.27
T8W | 1.99 | 2.87
T8L | 2.36 | 2.95
T8V | 2.26 | 2.82
T8K | 2.28 | 2.99
T8C | 2.93 | 2.64
T8G | 2.68 | 2.59
T8R | 2.33 | 3.01
T8N | 2.36 | 2.4
T8F | 2.38 | 1.87
T8D | 2.53 | 2.23
P10N | 2.27 | 1.91
P10Y | 2.4 | 2.47
P10L | 2.43 | 3.21
P10F | 2.67 | 
P10A | 2.38 | 2.39
P10H | 2.43 | 2.57

Variant | protein stability index [1] | protein stability index [2]
P10D | 2.88 | 
P10Q | 2.56 | 2.28
P10E | 2.77 | 2.47
P10I | 2.48 | 3.15
P10V | 2.29 | 2.25
P10R | 2.26 | 3.17
P10C | 2.29 | 2.09
P10S | 2.03 | 2.05
P10W | 2.37 | 2.88
P10T | 2.56 | 2.11
P10K | 2.58 | 1.43
P10M | 2.47 | 2.82
P10G | 2.46 | 1.84
A5W | 2.96 | 4.16
A5D | 3.02 | 1.7
A5E | 2.51 | 2.01
A5G | 3.03 | 2.44
A5Q | 2.5 | 2
A5H | 2.54 | 1.69
A5K | 2.94 | 2.07
A5F | 2.79 | 3.93
A5L | 2.4 | 3.4
A5S | 2.87 | 2.34
A5M | 1.9 | 2.19

Variant | protein stability index [1] | protein stability index [2]
A5T | 2.38 | 2.67
A5I | 2.56 | 2.96
A5N | 2.54 | 2.18
A5C | 2.6 | 2.2
A5V | 2.37 | 3.93
S2Y | 2.5 | 3.18
S2T | 2.04 | 2.11
S2F | 2.24 | 3.2
S2C | 2.64 | 2.73
S2V | 2.21 | 2.88
S2M | 2.41 | 2.38
S2N | 3.12 | 2.72
S2L | 2.53 | 2.93
S2D | 3.12 | 2.45
S2E | 2.65 | 2.29
S2W | 1.9 | 1.23
S2I | 2.49 | 2.83
S2K | 2.58 | 1.89
S2A | 2.31 | 3.34
S2R | 2.73 | 1.58
S2H | 2.69 | 1.95
S2Q | 2.6 | 2.68
R4I | 2.92 | 1.55
R4E | 3.58 | 2.41

Variant | protein stability index [1] | protein stability index [2]
R4C | 2.69 | 3.21
R4M | 2.45 | 2
R4F | 2.11 | 2.22
R4W | 2.38 | 2.9
R4A | 3.09 | 1.82
R4L | 2.73 | 3.03
R4G | 3.32 | 2.64
R4Q | 3.06 | 1.83
R4T | 3.08 | 2.84
R4V | 2.23 | 1.96
R4K | 2.58 | 1.8
V6C | 2.52 | 2.93
V6A | 3 | 2.57
V6N | 2.98 | 2.76
V6D | 2.64 | 2.57
V6K | 2.72 | 2.02
V6I | 2.27 | 2.17
V6R | 2.19 | 2.37
V6S | 2.62 | 3.49
V6G | 2.9 | 2.49
V6L | 2.35 | 3.23
V6M | 2.51 | 2.68
V6Y | 2.41 | 3.34
V6F | 1.92 | 2.8

Variant | protein stability index [1] | protein stability index [2]
H13Y | 2.5 | 2.08
H13A | 2.31 | 2.86
H13W | 2.4 | 1.65
H13N | 2.39 | 1.91
H13M | 2.33 | 3.31
H13K | 2.33 | 2.31
H13D | 3.07 | 2.18
H13T | 2.46 | 2.38
H13R | 2.21 | 
H13G | 2.67 | 1.73
H13L | 2.73 | 2.11
H13S | 2.5 | 2.59
H13F | 2.24 | 3.29
H13V | 2.33 | 1.99
H13Q | 2.59 | 1.89
H13I | 2.39 | 2.16
H13E | 3 | 2.37
H13C | 2.58 | 2.89
H15A | 2.57 | 1.93
H15G | 2.88 | 2.48
H15D | 3.15 | 2.08
H15K | 2.6 | 2.5
H15E | 3 | 1.67
H15F | 2.32 | 2.69

Variant | protein stability index [1] | protein stability index [2]
H15C | 2.52 | 4.24
H15L | 2.33 | 1.7
H12A | 2.44 | 1.65
H12D | 2.73 | 2.2
H12G | 2.68 | 2.16
H12I | 2.53 | 1.98
H12L | 2.79 | 2.83
H12M | 2.52 | 2.12
H12V | 2.73 | 2.67
H12K | 2.87 | 3.08
H12C | 2.37 | 2.4
H12Q | 2.69 | 2.12
H12E | 2.87 | 2.75
H12F | 2.62 | 2.49
H12R | 2.32 | 2.76
H12S | 2.8 | 2.33
H12Y | 2.46 | 2.19
H12W | 2.27 | 3.29
H12N | 2.58 | 2.79
